One series concerns the target EAF1 (UniProt Q96JC9). Kind of series: IP of tagged ELL, EAF1 blot. Particulars: reference: wild type ELL; sites T551,S561,S589.
Series [1] concerns the molecule itself. Kind of series: co-sedimentation; glycerol gradient of purified recombinant His-GFP-ELL.
Another series deals with T1, GST-ELL (human, UniProt P55199 1-621).
T1 construct: ELL (aka ELL1), human; Cloned in pET-GST
T1 sequence (looked up): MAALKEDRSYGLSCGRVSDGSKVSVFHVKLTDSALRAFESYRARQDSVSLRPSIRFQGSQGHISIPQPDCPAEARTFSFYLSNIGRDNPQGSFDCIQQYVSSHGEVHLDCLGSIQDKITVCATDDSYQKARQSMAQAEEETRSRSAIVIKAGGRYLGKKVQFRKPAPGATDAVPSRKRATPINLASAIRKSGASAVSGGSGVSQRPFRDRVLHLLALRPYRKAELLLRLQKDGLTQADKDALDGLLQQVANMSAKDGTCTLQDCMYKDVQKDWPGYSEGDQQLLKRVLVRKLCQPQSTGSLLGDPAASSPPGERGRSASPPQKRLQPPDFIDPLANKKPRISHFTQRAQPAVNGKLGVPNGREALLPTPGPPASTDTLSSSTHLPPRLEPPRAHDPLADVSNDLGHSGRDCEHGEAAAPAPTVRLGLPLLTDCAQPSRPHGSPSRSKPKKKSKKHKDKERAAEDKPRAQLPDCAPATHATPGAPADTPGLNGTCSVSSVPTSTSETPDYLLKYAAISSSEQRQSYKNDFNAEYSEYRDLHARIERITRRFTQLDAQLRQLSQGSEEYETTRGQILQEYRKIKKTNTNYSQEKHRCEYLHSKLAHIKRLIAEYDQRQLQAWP
The series can be described thus: pull-down; GST or GST-ELL bound to glutathione beads incubated with purified prey in 20 mM Tris-Cl pH 8, 20% glycerol, 2 mM EDTA, 150 mM KCl, BSA 20 ng/μl, 0.1% NP-40, 10–12 h, 4°C; immunoblot; some panels with purified EAF1 added. Conditions: both partners purified. On the technique in general: A western blot detects proteins with antibodies after separation by electrophoresis.

“ELL (aka ELL1) (from UniProt P55199) ELL TM (T551A, S561A, S589A)”: the “binding against the reference” value with EAF1 is listed as “weaker”.

B1: His-GFP-ELL (natural protein, human, UniProt P55199 1-621, looked up)
chain: MAALKEDRSYGLSCGRVSDGSKVSVFHVKLTDSALRAFESYRARQDSVSLRPSIRFQGSQGHISIPQPDCPAEARTFSFYLSNIGRDNPQGSFDCIQQYVSSHGEVHLDCLGSIQDKITVCATDDSYQKARQSMAQAEEETRSRSAIVIKAGGRYLGKKVQFRKPAPGATDAVPSRKRATPINLASAIRKSGASAVSGGSGVSQRPFRDRVLHLLALRPYRKAELLLRLQKDGLTQADKDALDGLLQQVANMSAKDGTCTLQDCMYKDVQKDWPGYSEGDQQLLKRVLVRKLCQPQSTGSLLGDPAASSPPGERGRSASPPQKRLQPPDFIDPLANKKPRISHFTQRAQPAVNGKLGVPNGREALLPTPGPPASTDTLSSSTHLPPRLEPPRAHDPLADVSNDLGHSGRDCEHGEAAAPAPTVRLGLPLLTDCAQPSRPHGSPSRSKPKKKSKKHKDKERAAEDKPRAQLPDCAPATHATPGAPADTPGLNGTCSVSSVPTSTSETPDYLLKYAAISSSEQRQSYKNDFNAEYSEYRDLHARIERITRRFTQLDAQLRQLSQGSEEYETTRGQILQEYRKIKKTNTNYSQEKHRCEYLHSKLAHIKRLIAEYDQRQLQAWP
notes: ELL (aka ELL1), human; Cloned in pET-11d; also called GFP-ELL (in vitro); purified recombinant ELL protein; source: E. coli BL21(DE3), purified (Ni-NTA)
Consider B1, for which the binding result (in series [1]; with GST-ELL) was “binds” each time.

The record behind these values is publication PMC9638944, “ATM-mediated ELL phosphorylation enhances its self-association through increased EAF1 interaction and inhibits global transcription during genotoxic stress” (Nucleic Acids Research, 2022).
